Test results taken from patent US20210388089A1 (COMPASS THERAPEUTICS, published 2021).
One block for each binder: values may come before it.

B2: human BTN3A1 (CD277) expressed on the cell surface (BTN-K32 aAPCs: K562 cells expressing human CD32 and BTN3A1; BMDCs of BTN3A1 knock-in mice) (receptor)
chain: not shown
notes: also called BTNA31-K32; BTN3-K32

Assays:
[1] = molecular target: T1, CD44 of OKT3-activated primary αβ T cells (human, UniProt P16070 21-742); assay: co-immunoprecipitation from activated primary αβ T cells after DTSSP crosslinking, LC-MS/MS
T1 construct: whole, on cells
Protocol: (§1) Proteins were eluted with LDS sample buffer supplemented with DTT by heating at 70° C. for 10 minutes. Eluted fractions from BTN3A1-Fc and control were run into an SDS-gel for 0.5 cm, and the entire gel lanes were excised and digested with trypsin. Liquid chromatography tandem mass spectrometry (LC-MS/MS) analysis of tryptic digests was performed by the Wistar Proteomics and Metabolomics Facility using a Q Exactive HF mass spectrometer (Thermo Scientific). MS/MS spectra generated from the LC-MS/MS runs were searched using full tryptic specificity against the UniProt human database (www.uniprot.org; Oct. 1, 2017) using the MaxQuant 1.6.0.16 program. Protein quantitation was based on intensity and MS/MS count was determined from unique and razor peptides (J. Cox, M. Mann, MaxQuant enables high peptide identification rates, individualized p.p.b.-range mass accuracies and proteome-wide protein quantification. Nat Biotechnol 26, 1367-1372 (2008)). False discovery rates for protein and peptide were set at 1%. Protein tables were filtered to remove reverse database entries, common contaminants, and proteins identified by a single peptide.
(§2) To determine the mechanism by which BTN3A1 (also referred to herein as CD277) inhibits αβ T cell activity, the binding of BTN3A1 to potential immunosuppressive receptors was ruled out by comparing the binding of recombinant NKG2A, GPR174, NRP1, NRP2, PD-1, CTLA4, TIM-3 and BTLA Fc proteins to MHC-I⁻CD32⁺ K562 artificial Antigen-Presenting Cells with BTN3A1 retrovirally expressed on the surface of the cell (BTN-K32 aAPCs) vs. mock-transduced aAPCs. Binding of BTN3A1 to these immunosuppressive receptors was not observed. BTN3A1-Fc proteins were then used to co-immunoprecipitate (co-IP) the binding partner(s) of BTN3A1 on OKT3-activated primary αβ T cells from three independent pull downs from three different donors.

[2] = molecular target: T2, CD5 of OKT3-activated primary αβ T cells (human, UniProt P06127 25-495); assay: as above
T2 construct: whole, on cells
T2 sequence (looked up): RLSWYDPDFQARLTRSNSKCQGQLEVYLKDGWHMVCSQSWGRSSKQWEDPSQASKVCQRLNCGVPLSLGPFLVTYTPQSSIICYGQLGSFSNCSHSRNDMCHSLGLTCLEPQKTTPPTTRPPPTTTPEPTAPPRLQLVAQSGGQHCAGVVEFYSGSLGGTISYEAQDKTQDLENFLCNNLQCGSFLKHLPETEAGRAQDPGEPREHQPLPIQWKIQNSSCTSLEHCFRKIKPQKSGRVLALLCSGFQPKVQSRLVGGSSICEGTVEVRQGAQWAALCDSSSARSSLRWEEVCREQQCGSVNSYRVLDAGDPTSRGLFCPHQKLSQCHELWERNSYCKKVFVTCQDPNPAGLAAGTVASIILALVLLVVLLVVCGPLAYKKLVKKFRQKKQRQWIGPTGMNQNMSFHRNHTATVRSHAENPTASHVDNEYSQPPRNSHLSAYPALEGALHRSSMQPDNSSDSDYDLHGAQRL
Protocol: as §1, §2

[3] = molecular target: T3, CD2 of OKT3-activated primary αβ T cells (human, UniProt P06729 25-351); assay: as above
T3 construct: whole, on cells
T3 sequence (looked up): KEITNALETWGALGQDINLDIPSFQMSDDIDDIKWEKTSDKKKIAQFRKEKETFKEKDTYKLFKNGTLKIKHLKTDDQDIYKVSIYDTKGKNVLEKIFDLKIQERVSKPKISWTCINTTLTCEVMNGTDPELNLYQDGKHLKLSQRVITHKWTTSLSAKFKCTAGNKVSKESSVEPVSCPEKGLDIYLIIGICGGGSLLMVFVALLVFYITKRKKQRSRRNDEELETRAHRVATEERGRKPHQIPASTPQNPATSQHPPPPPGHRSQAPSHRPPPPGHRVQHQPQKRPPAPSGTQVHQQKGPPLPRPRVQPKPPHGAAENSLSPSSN
Protocol: as §1, §2

[4] = molecular target: T4, recombinant NRP1 Fc protein (UniProt O14786-2 22-644, limits assumed); assay: binding of recombinant Fc proteins to BTN-K32 aAPCs vs. mock-transduced aAPCs
T4 construct: Construct not described
T4 sequence (looked up): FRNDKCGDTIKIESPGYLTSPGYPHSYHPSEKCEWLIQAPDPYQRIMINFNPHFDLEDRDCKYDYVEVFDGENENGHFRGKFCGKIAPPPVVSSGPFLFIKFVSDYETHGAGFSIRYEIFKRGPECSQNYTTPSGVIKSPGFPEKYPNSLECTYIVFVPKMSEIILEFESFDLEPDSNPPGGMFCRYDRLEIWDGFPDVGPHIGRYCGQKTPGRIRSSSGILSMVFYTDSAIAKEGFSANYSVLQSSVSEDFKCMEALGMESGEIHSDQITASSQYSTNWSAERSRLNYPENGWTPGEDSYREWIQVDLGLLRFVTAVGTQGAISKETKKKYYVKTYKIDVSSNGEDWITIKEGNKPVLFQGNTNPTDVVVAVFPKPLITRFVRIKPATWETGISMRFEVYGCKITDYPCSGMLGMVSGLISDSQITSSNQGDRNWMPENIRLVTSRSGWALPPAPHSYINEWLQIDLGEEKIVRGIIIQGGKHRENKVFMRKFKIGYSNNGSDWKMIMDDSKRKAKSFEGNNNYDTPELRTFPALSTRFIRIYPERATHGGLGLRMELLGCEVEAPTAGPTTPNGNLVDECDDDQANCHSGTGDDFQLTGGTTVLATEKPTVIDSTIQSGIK

[5] = molecular target: T5, recombinant NRP2 Fc protein (UniProt O60462 23-864, limits assumed); assay: as above
T5 construct: Construct not described
T5 sequence (looked up): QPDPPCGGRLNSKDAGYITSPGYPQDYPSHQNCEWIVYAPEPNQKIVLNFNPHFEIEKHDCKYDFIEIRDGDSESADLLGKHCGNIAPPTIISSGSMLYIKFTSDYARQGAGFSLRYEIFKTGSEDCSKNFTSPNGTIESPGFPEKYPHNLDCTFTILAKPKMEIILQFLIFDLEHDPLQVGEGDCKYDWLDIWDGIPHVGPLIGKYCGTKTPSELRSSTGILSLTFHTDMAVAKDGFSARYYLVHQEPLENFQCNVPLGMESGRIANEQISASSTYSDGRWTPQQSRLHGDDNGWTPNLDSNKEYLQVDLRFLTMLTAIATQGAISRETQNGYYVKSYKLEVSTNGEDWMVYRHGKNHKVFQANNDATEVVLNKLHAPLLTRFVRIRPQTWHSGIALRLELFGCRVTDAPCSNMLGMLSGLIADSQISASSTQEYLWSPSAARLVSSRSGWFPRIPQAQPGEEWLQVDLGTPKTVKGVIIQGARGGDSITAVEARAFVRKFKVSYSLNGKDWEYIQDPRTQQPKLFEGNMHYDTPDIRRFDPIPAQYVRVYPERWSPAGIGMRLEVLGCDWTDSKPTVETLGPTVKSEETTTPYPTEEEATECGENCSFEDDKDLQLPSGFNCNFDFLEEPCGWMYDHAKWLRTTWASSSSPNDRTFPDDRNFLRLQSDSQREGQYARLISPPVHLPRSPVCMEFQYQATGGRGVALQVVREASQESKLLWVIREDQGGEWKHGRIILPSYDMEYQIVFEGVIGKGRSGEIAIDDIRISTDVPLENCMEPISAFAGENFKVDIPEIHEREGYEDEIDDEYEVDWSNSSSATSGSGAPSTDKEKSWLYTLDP

[6] = molecular target: B2; assay: as above
[7] = molecular target: B2; assay: cell-based or functional assay
[8] = molecular target: T6, biotinylated human CD277 Fc fusion (human, UniProt O00481 30-254, limits assumed, biotinylated with EZ-Link Sulfo-NHS biotinylation reagent (sites not given)); assay: yeast display selection (MACS and FACS) for binders of biotinylated human CD277 Fc fusion
T6 construct: also called human CD277 Fc fusion antigen

T1 sequence (P16070 21-742): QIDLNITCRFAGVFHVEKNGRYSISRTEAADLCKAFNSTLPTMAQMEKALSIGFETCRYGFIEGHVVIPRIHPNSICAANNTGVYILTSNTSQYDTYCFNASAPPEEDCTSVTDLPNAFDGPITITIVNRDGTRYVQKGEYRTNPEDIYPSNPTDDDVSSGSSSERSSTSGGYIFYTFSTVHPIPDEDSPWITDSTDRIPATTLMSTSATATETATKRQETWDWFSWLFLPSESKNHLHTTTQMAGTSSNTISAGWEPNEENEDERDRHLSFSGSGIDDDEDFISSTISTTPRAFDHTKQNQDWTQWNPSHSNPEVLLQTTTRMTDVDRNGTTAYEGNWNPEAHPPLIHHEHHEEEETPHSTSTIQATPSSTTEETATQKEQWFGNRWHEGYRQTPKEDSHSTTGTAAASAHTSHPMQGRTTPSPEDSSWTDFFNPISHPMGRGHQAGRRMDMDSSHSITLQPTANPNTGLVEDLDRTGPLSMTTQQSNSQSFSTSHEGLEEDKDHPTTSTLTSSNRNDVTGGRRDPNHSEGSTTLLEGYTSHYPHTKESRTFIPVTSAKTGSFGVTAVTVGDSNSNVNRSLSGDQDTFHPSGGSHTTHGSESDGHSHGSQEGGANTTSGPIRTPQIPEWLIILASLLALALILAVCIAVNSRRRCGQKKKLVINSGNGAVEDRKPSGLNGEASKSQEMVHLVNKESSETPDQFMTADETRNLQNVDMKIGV

Binder: B2
binding result [4]: no binding
binding result [5]: no binding

B4: anti-CD277 monoclonal antibody mAb1 (antibody, human IgG1, kappa, N297A)
heavy: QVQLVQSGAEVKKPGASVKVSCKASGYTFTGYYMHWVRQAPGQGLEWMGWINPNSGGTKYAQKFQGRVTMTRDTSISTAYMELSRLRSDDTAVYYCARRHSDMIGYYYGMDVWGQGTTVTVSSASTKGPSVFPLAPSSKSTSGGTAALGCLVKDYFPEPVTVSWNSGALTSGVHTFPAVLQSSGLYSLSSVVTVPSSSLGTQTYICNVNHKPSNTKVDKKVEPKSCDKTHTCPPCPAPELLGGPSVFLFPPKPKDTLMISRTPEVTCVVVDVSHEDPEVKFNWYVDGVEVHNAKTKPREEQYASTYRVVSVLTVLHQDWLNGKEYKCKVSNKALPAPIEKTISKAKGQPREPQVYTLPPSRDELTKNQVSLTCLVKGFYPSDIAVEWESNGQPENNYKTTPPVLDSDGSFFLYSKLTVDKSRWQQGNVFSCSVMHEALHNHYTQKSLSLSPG
light: DIQMTQSPSSVSASVGDRVTITCRASQGISSWLAWYQQKPGKAPKLLIYAASSLQSGVPSRFSGSGSGTDFTLTISSLQPEDFATYYCQQATDFPPTFGGGTKVEIKRTVAAPSVFIFPPSDEQLKSGTASVVCLLNNFYPREAKVQWKVDNALQSGNSQESVTEQDSKDSTYSLSSTLTLSKADYEKHKVYACEVTHQGLSSPVTKSFNRGEC
notes: also called anti-CD277 antibody mAb1; anti-CD277 mAb1
IFN-γ release of purified CD4+ T cells stimulated with BTN-K32 cells (ELISA, fold over baseline) [7]: > 2 fold
IFN-γ release of purified CD8+ T cells stimulated with BTN-K32 cells (ELISA, fold) [7]: ~1300 fold
proliferation of gated CD4+ T cells within total PBMCs stimulated with anti-CD3/anti-CD28 coated BTN-K32 cells (fold change) [7]: ≥ 1.5 fold
proliferation of gated CD8+ T cells within total PBMCs stimulated with anti-CD3/anti-CD28 coated BTN-K32 cells (fold change) [7]: ≥ 1.5 fold
proliferation of purified CD4+ T cells stimulated with BTN-K32 cells (fold change) [7]: ≥ 1.5 fold
proliferation of purified CD8+ T cells stimulated with BTN-K32 cells (fold change) [7]: ≥ 2 fold
binding result [8]: binds

Now from value to binder:

binding result [1]: no binding (tested: 10 µg/ml BTN3A1-Fc)
binding result [2]: no binding (tested: 10 µg/ml BTN3A1-Fc)
binding result [3]: no binding (tested: 10 µg/ml BTN3A1-Fc)
B1: BTN3A1-Fc fusion protein (R&D systems Cat #8539-BT-050) (Fc fusion)
chain: not shown
notes: Bought from R&D systems; also called BTN3A1-Fc proteins; CD277; not shown: Fc part of the bought fusion protein

binding result [6]: no binding
B3: recombinant NKG2A Fc protein (Fc fusion, not shown: a dimerising Fc or GST)
chain: not shown
notes: Construct not described
